Assay results as given in paper PMC5955915.

Legend:
[1] = molecular target: BG505 NFL.664 (native flexibly linked, cleavage-independent soluble HIV Env trimer) (HIV-1 isolate BG505 (clade A)); assay: cryo-EM structure
[2] = molecular target: BG505 NFL.664 (native flexibly linked, cleavage-independent soluble HIV Env trimer) (HIV-1 isolate BG505 (clade A)); assay: crystal structure
DSC = conditions: glycan changed form; control: BG505 NFL.664 from HEK 293F, natural glycoforms
BG505 SOSIP.664 = assay: BLI

Kd (BG505 SOSIP.664) [nM]	koff (BG505 SOSIP.664) [s⁻¹]	Substance	stoichiometry N [1]	stoichiometry N [2]	stability_or_folding, Tm (DSC)
		BG505 NFL.664 (native flexibly linked, cleavage-independent soluble HIV Env trimer)	3	3	
		BG505 NFL.664 Env trimer: kifunensine and swainsonine (oligomannose only)			no change, 66.6 vs 65.8
38.3	0.00059	PGT124 Fab			
58.5	0.00033	PGT121 Fab			
